The values below come from a protein production outcome set (Wang et al. 2014).

This data set in a line: label from the status in PepcDB records.

Consider “MQNNSYGYAVSVRVGGKEHRHWERYDIDSDFLIPADSFDFVIGRLGPEAAIPDLSGESCEVVIDGQIVMTGIIGSQRHGKSKGSRELSLSGRDLAGFLVDCSAPQLNVKGMTVLDAAKKLAAPWPQIKAVVLKAENNPALGKIDIEPGETVWQALTHIANSVGLHPWLEPDGTLVVGGADYSSPPVATLCWSRTDSRCNIERMDIEWDTDNRFSEVTFLAQSHGRSGDSAKHDLKWVYKDPTMTLHRPKTVVVSDADNLAALQKQAKKQLADWRLEGFTLTITVGGHKTRDGVLWQPGLRVHVIDDEHGIDAVFFLMGRRFMLSRMDGTQTELRLKEDGIWTPDAYPK”, for which the protein production entry was “not failed”.
In the case of “MQNYGRLFELVPGKLELFKKLQLLTEQFKNYCLLSRNFEAANTVFGQIEEIYSGILKKEPGHILVSAHLLFLYETSADLYTKLGKIEKAEESYLQALDFLSKKQRASPGNTTYVRQQGKVYRMLGRAFYEAGDSGKAAQYAGKALEILRELAGKNPEDLHYQYEISDDFTGLGKLFEDIGDIERAKECHMQEINIYRNIHERDPEDEVSEANIAATLDRIGHLYAGKGETETAKQYYEQGLEAYEKLSESYPEDIDHEVGIANTLGYIGKQYSDPEPETALKYYKKALGILEDVVQTFPDVPVYKEDLIQTLGYLESLASGQKQYENAILYRERITELSRQLASENPENFDYKKELAISFKHMGLLYEKAEKHELAKQQYSKSADVFRQVLQDENEKDLMKGLLALDLQKQATILIHEKNYGLAKEYLALLRDYYEALYEKDPEKPENWKAVCEIRTLCGILHKSMGNYDAAIQIYKSVFSILHKHPVSDPDNPDYQSIIGVLYTQLGIAYHLADEYDKSKEAFEKSIPINTRLLDEETENFLHMGDMAVALAEYSKLLTSMGMKKEAEEYAAKADEIKEKIMKKFRFDEYTVEDGDKKAL” it was “failed”; in that of “MQNYKSGELALLDVPVPGCKPGGVLVRTAYSLISTGTELMKVSEAGMSMLGKARSRPDQVAKVVQSVATNGVPATYRKVMGKLDSYTPLGYSLCGVVEQVGEGIDDVKAGDLVACAGNEHALHAELNWVPRNLYAPVPDGLAARDAAFGTVGSIALQGVRQGESRLGETALVIGLGLIGQLVVQLLVASGVRVVGADPDAERCELAERLGAAACGDPASPAVESAVVELTDGHGVDQVYLAAGGGSNQPVELAARLCRDRGRVVDIGKCRLDLPWNAYYEKELDVRFSRSYGPGRYDPEYELEGRDYPIGYVRWTERRNLACFLDLVARGRVDVAPLITRTADFDDAVETYRSLQDGALKAVAVLFRYPGQPDAEAPAGAPAVTVPGVRRGAGAAAPARAARTPVRLAFVGAGNYATSMLLPHLARREGVELSTVVTTTALSAANAQRKFGFGEATTDLDAVLGDASVDAVFVVTRHSSHAELTRKALLAGKAVFVEKPLALTGEELTGVLAAVEESGNDRVQVGFNRRFAPLLQEARKRFGARTGPASLRYLVNAGRLDHGSWYLQQGTEGSRFAGEGGHFVDTASWLLGADPVSVYALAPSSNEDLQVVLGYPDGSTATLSYVTTGAAGFPKETLDLVADGKVLQLDDFVRSSVYDGRKRWVSSRLPKARDKGQSAELAAFVRAVRTGGPMPVPLESLVATTAATLAVRTALAAGAPVGLAEAR”, “failed”.
As to “MQPIDRAQAQQRANDILVFQRELQRLDQEQAFRLEPAQARQLADYHLALLDSYRDRFDIDHDLRSQQLSLGMRVASFFGALAFAASVFLLFYRFWGLFPTVAQVAILIGSAFAAFFATLWVQAKDASGYFSKLAAMVAFACFVLDLTMLGQIFNVTPSDLALVPWALYALLLAYLCNARLLLAAAILCVMGFIAARVGTWGGGYWLSVGERPENFFPAAALIFAVPLCFDQRNFSGFAVIYRVFALLGLFLPMLVLANWGSGSYLALPSALIEGLYQVAGFVAAALVIWLGARRNWADVSNTGITFFVIFLYTKFFDWWWEAMPKYLFFLVLGLSALLILLVLRRLRTPLGIAARTDA”, the protein production result is “failed”.
For “MQPLVSTVLVPSQGIPLCCNEICLKSLQKEVAMPLKDLLIALVVIVAWGVNFVVIKVGLDGLPPMLLGALRFLLVAFPAILLVRRPKLPWRWLIAYGATISLGQFAFLFQAMYSGMPPGLASLILQSQAFFTLGFAALFLGERLRLASVLGLLVAAGGLALIGSEDGGHVPMLALVLTLCGGAMWGLGNIITRRFGSVDLVALVIWGGLIPPLPFLALSWWLEGPERIGHALANISWSSVLALAYLAFVATMLGYSLWSKLLSRHPAGKVAPFSLLVPVIGLSSSALLLGERLTATQGWGALLVMAGLLVNVFGARIGQRLRAANA”, the protein production entry is listed as “failed”.
In the case of “MQPLVSVLICAYNVEKYFAQSLAAVVNQTWRNLDILIVDDGSTDGTPAIARRFQEQDGRIRIISNPRNLGFIASLNIGLDELAKSGGGGEYIARTDADDIASPGWIEKIVGEMEKDRSIIAMGAWLEVLSEENNKSVLAAIARNGAIWDKPTRHEDIVAVFPFGNPIHNNTMIMRRSVIDGGLRFDPAYIHAEDYKFWYEAGKLGRLAYYPEALVKYRFHQDQTSSKYNLQQRRTAWKIKEEIRAGYWKAAGIAVGADCLNYGLLKSTAYALYEKALSGQDIGCLRLFLYEYFLSLEKYSLTDLLDFLTDRVMRKLFAAPQYRKILKKMLRPWKYRSYLEHHHHHH” it was “failed”.
As for “MQPYEKYLKLNSQKLRADQTDTERKLWQRINRDQLLGFRFNRQKPLLSYIVDFYCAKTKLIIELDGSQHYKPDYQEKDALRDAELNSLGFTVMRFSNDEVMREIEAVVEQIYLFLENVRTD”, the protein production entry was “failed”.
In the case of “MQQFHIRRLREEDIPLLKGLLVELDTSHYEAEPNFYRSPEEMAQLREERGVFDKYFDDSMIAFIACSHRQVVGFISGTVRDIDSMVSVAKRVGFVNELVVSESHRNLGIGLSLMDKIESDLCNQGIEEIGLTVASFNHEGEDFYHKMGYRVMTKMMSKRVKDLEHHHHHH”, the protein production entry is recorded as “not failed”.
Regarding “MQQINFYRQRVAINVLAKDIANAKAIYEAAEGHAVIGVLSAQFATVEEGVPEVKRWMAEVPSISVGLGAGDPAQYYKAAMIAAHTHPAHVNQTFTGSGFAAGALAATGGEQTHINALVSPTGTPGEVVISTGVSSSQGTPARVSCEAAVRMMQDMGAHAAKFFPMGGEKSLPELYALATTAARHGMTLIEPTGGISLDNFGIILQTCLEAGVPRVMPHVYSSIIDPQTGNTRPEDIIQLMEIVKALV”, the protein production entry is recorded as “failed”.
Consider “MQQIWGSERRRTAIGRMALSVPARQALADRQLVAERTILDYGCGRGDDVRALQQLDCQVVGWDPYYRTDTQLVATDVVLLTYVLNVIEDPAERRQTLKQAWELTSTLLVVSARLTWEKSKVHGEGFGDGLLTSRQTFQHLYATSELREYVEQVTGAR”, for which the protein production result is given as “failed”.
The entry for “MQQKLENIKFVITDVDGVLTDGQLHYDANGEAIKSFHVRDGLGIKMLMDADIQVAVLSGRDSPILRRRIADLGIKLFFLGKLEKETACFDLMKQAGVTAEQTAYIGDDSVDLPAFAACGTSFAVADAPIYVKNAVDHVLSTHGGKGAFREMSDMILQAQGKSSVFDTAQGFLKSVKSMGQ” is “not failed”.
With “MQQMNSRLKLTMAVALTAIVLLAGCASTPDWPVSARDNTKPVYSEKLLEQVPFYPQEKYQCGPASLAMMLNAQGLATNPDILKELVYLPGKEGSLQVEMVAGARAHDMLVYRLEPEPEAILAEVEAGNPVLVMQNLRLSWWPQWHFAVVVGYDSTEQVFILNTDTRRHYEMPYKVFYNTWSKAERWAAVILPPDQTPASAEMLPYLQAAHDLETTGHTLAAQRAYQTAITRWPEQPTPLMANANLQYQLGHFQNAVGSFLRVVEKFPGFSEGWNNLAIALNDAGCPARARQASECAAGLAPKRFKPLQDEARSHAADAAACPQIPACPSNAH”, the protein production entry was “failed”.
Consider “MQQPTASVVSYVAEYHKATETTMGRYKKVIEITGHDEVAAKLLEGLIDAGTRYFSKVVEMEHRMASARFRLDGEELRELTETLDRSRRLAHESLISSLHVFNRYIVKEYGEELKEAGIEGGIFPKPEANRDRIAIADWAGELLTGIYENRHR”, for which the protein production entry is “not failed”.
The entry for “MQRFIDNSLESNWLWLTARICLALMFVASGLAKLFDYQASLEEMRAAGLEPAWLFNIATAVTLLAGSALVLLDRKLWLGAGALAVFLLLTILIVHTFWSKTGVEAKLAMFFALEHIAVIGGLIATAIASAQRQRLRQDVSVAATYQKA” is “failed”; for “MQRIRIIDSHTGGEPTRLVIGGFPDLGQGDMAERRRLLGERHDAWRAACILEPRGSDVLVGALLCAPVDPEACAGVIFFNNSGYLGMCGHGTIGLVASLAHLGRIGPGVHRIETPVGEVEATLHEDGSVSVRNVPAYRYRRQVSVEVPGIGRVSGDIAWGGNWFFLVAGHGQRLAGDNLDALTAYTVAVQQALDDQDIRGEDGGAIDHIELFADDPHADSRNFVLCPGKAYDRSPCGTGTSAKLACLAADGKLLPGQPWRQASVIGSQFEGRYEWLDGQPGGPIVPTIRGRAHVSAEATLLLADDDPFAWGIRR” it is “not failed”.
For “MQRPHVQEAEATAAPQQRTGASATFAELLKRVKAEGLLDLDPRYYIGRLALNTTLLLVGFAAFFALGDSWWQLVVALWMGLCGGQSAFMWHDAGHKAMFRSKKAASAVGYFHANLVNGVSFGWWVNHHNRHHSNPNHLDMDPDIGRRTAIFDIKQYPTRRGTQKFIVRYQSVLFFALLVTESFKMLKTAVLSIAQGKTKRPVLESFLLLARAAVYLTLVFTVLSPVLAVAFVLVQQAALGVYFGMIFAPNHKGMEVRDGDEETLDWLERQVLTSRNIRPSLFIDFLYGGLNYQVEHHLFPAMPQKNLARARELTRAYCAERGVPYHEVGFWASYREVASFLHEVSAPVRRGDVEEQIRRQAGQAA”, the protein production result is recorded as “failed”.
On to “MQSATDVAEYCKYDGFDGLKRAISLSDEEILNELDIAHLRGRGGAAYPLGKKWRHLYHAKGTTKYIVCNADEGEPGTFKDKVLLSEDPLSVIEGMIIAGYLFSAKAGYIYMRGEYRRIQKTFQEALDNARQAGFLGENILGIEGFNYDITIISGAGAYICGENSALLNSIEGKTGRPRVKPPHLADVGLYLQPTLVNNVESFASVPVILREGGQAFLEMGTADGGGTKLICLSGHIKNRGLYEVNLGTPLEEIIYGEQYGGGSATGRALKFIHFGGQSGPIGAVATLRDCLYSYEDLWAHDLSVGSGAIVVMDDSVNVVDYLVHVAAFFAHESCGKCTPCRLGTTRILELLSKFNRNEATASDLPRLEKMLTHVTRLSACGLGQSVANPMKSALALFPEEFETTAETEIYATSKGGWLEHHHHHH”, for which the protein production result is on record as “not failed”.
Turning to “MQSDHKEKIAILVDVQNVYYTCREAYRSNFDYNQFWYVATQEKEVVSAKAYAIASNDPKQRQFHHILRGVGFEVMLKPYIQRRDGSAKGDWDVGITLDAIEIAPDVDRVILVSGDGDFSLLVERIQQRYNKKVTVYGVPRLTSQTLIDCADNFVAIDDDFLL”, the protein production entry was “not failed”.
For “MQSDVVLGAAHWVYLLSVVAIILTMVLRANAVVPSVLGTFLVVLAFTGSPIQALVGIFTASFVAAKELFNIFLVITFMTALLNALKVLQADVRMVQPLRRVMTNGHASFLILAGCTYGLSLFFWPTPAVPLVCAILLPAAVAAGLPPLAGAMAIAIAGQGMALSSEYVIGVAPGISAKAAGAAVSAAVVADRALVLSVITGAIALVMTYLFMRKHIVPGDTALLAAWQARAQDGELERIEGSGSFDKAELARGASQPVKGGAEARLAGWSRAFALITPIAFLGVIALMALPRLVPGLPALRGGDAAALVGGVAFMLMMLATLAAEGPRRMLDVCPEHVTDGFVFAFRAMGSVLPIAGFFFIGAAETAAPILGLESGHAPGLLFDLISAAQHLIPENHYLVAFGVLLVGMVTGIDGSGFAGLPLTGTLSGALGPVVGIDPATLAAVGQMGAVWTGGGTLIAWSSLIAVAGFARVHVLDMVRALMLPVLLALSVSTIAAILIWS”, the protein production entry is given as “failed”.
